Here are results for twelve sequences from the DeepSol protein solubility set.

This series in a line: soluble on expression in E. coli; label from the status in PepcDB or PDB records.
Turning to “MTSLSQFEPLFLEFMQQEMQVDAAHDIEHVKRVVKTAKQLCDEENADIAIVLPAAYLHDCFTYPKDHPNRKQSSAIAAKKAIAYLESIQYPQHYHDAIAHAIEAHSFSANIRPNTLEAQIVQDADRLDALGAIGVTRCIQVSTHFNAQLYNDNDMFAKERELNDKQFTVDHFQTKLFKIADTMNTESAKLEANKRKAFMQTYLKQLHDEVTALEHHHHHH”, the “soluble on expression in E. coli” value is on record as “soluble”.
Turning to “MTSNDADIKATVCVVTYNQVEYIEQCLQSLIDQITNFEFEIIVGDDFSTDGTRRIVEDFQRKYPHVIKPIFHSRNVGAAVNFNAVHGSARGKFVAHVDGDDYMLPNKLRSQVDFMERNPNCNISWHRMYVSYGSNIKEDLLDLNNFRQLCFTRADILKFITIGMNSSKMYRAETMNFQRPDFPMLDYFANVEQIGDGQACFISSEPLGVYRAGIGIAKNDFRVKEALNSSFLYFLSKYPKLSNEINQSVLLLLLMAFKNRRYTELSLFLKVYLKSFSFFTPWKLYKDYEFIKMLRLPKLEHHHHHH”, the “soluble on expression in E. coli” value was “not soluble”.
For the sequence “MTSPSSASPDGHGARLDAQSIRFERLLPGPIERVWAWLADADKRARWLAGGELPRQPGQTFELHFNHAALTAETAPARYAQYDRPIVARHTLLRCEPPRVLALTWGGGAGEAPSEVLFELSEAGEQVRLVLTHTRLADRAAMLDVAGGWHAHLAVLAGKLAGQAPPPFWTTLAQAEQDYEQRLLEHHHHHH”, the “soluble on expression in E. coli” value is listed as “soluble”.
For the sequence “MTSPSSDEDIIDIRVIKEEPESEPDSEAEPATTTNSTDSEDSVEQENKKLLETEKNRKREQKHKMLPNGTTSGTSDTGNQVPATSSAASSVDYTAMNAQDYLPTYSNTTLNYQPYQYQTAANGLLNYNNYSQYATANQLGSNYISPANFMQGGGISPLGFTTGTTGATTAAASVATSSASAVIGRSNGRSSSTVAASPADRSYSGVSGGQGQELTIQEFETVTEKIRRHGTYGQSKPPYSYISLITMAIQKSNSRQLTLSEIYNWIMDLFPYYQNNQQRWQNSIRHSLSFNDCFVKVARSPDKPGKGSFWTLHEHCGNMFENGCYLRRQKRFKVKEREPSRKKRNANSQQLHQQQHIPKMEIKEEDPTSITTTSSLGAYSLIPQISTKKEIKEELKAVQDATAAAANLGLIDPSGTPSAVNHSQPTSVISSVGTLGTTQAQMTLNGQYASPYLYSSDFATILPQSQNFLNNTLYNTTSSYPGIDYTNGVYQNTLYSSTNPNSAANL”, the “soluble on expression in E. coli” value is on record as “not soluble”.
As for “MTSRWGKYLLSGIMIAVLAGCQSRPTDRGQQYKDGRLEQSLELVNEPNAAGKPVNAKDYSDQVKVINQSSPGLYNRNSDTFNAVQNWMLAGADTSKLSLFGLNAYQMEGVDNFGNVQFTGYYTPVLQARYTPQGEFRHPLYRMPAKGKRRLPDRAAIYAGALDNRNLIIAYTNSLVDNFMMEVQGSGYVDYGDGRPLTFFGYAGKNGHAYRSIGKVLIDRGEVARADMSMQAIRQWAENHSEAEVRELLEQNPSFVFFKPVMYAPVKGASAVPLIAKASVASDKSLIPPGTTLLAEVPLLDDQGKFTGKYQMRLMVALDVGGAIKGQHFDIYQGIGHEAGQAAGFYNHYGRVWVLKNAQSSGPLFTAYKGGTQSEPTSNDSSLLVNNQDR”, the “soluble on expression in E. coli” value is given as “not soluble”.
On to “MTTANTPVRPKSAIDAVADAYTEKLIELNPSFATTLGLPGHETEYQDYSPAGAAAHAEATRLALEALAGLEPSDDVDAVTLDAMRERLGLELEIHQSGWDAADLNNIASPAQDIRAIFDLMPTDTVEHWEHIAGRAANVPGAIEGYIASLRAAKDDRKVAAARQIRIVIEQTGRYAAEDGFFAKMAADASLGDAPLPAEVQDKLDAGTSAARSAYSALGAFLRDELLPVAPEKDAVGRERYSLASRSFIGAEVDLEETYAWGVQELERLISEQEKVAGQIKPGASIEEAKSILNNDPARQIKGTDALKAWMQELSDRAVSELADVHFDIPDVMKTLECMIAPTDEGGIYYTGPSDDFSRPGRMWWSVPAGEDTFTTWSETTTVFHEGVPGHHLQVATATYRRELLNNWRRNVCWVSGHGEGWALYAEQLMLELGYLKDPGDHMGMLDGQRMRAARVVFDIGVHLELPVPERWGTGTWTPEKGFDFLKANLDISEGQLQFEFTRYLGWPGQAPSYKVGQRLWEQIRAELESREGFDLKSFHSKALNIGSVGLDVLRRALL”, for which the “soluble on expression in E. coli” value was “soluble”.
As to “MTTDSLSQIDTDQDEYGEEIEMASNSLGNLPDVVLQHLAPFLQWSTCRALSEVNLRFRSHFKQHLKEGQALSIKGQVSVGVGDRVNDCQNVSFLSEFYTIRVEMDDNMVVDWTLKLQSGVRTVVHRHYDGNTQTTTTKSVHLSSRDYLEKVLKWILARYQFKKIHLGVQGLAPLFSSYKGEIENVGISDEIEYLKLAEKFRPKHLTLFKPAQNTYNKGFFDLKKFPQLEELRMYGVPLDLDQLIESNISEVAADTIDKDIKLKHVRKIINNWKNGIINYKSIMISPSCSQFGIYCPHNQWSELTDHLVEANALYDNVVNIKEKIGSARYSPRSFEFEVWEADRY”, the “soluble on expression in E. coli” value is “not soluble”.
With “MTTFNYTNILTQAVDELSESQSYKGLFHQHKDGDPLPSAKSLYKIVELARAIIFPGYFGNSTVNSHTINYHIGVNVETLFGLLTEQILAGLCFGQENSKNATDDNEPCRETASLLAARFISKLPELRRILATDVEAAYYGDPAATCFGEIISCYPAIRAISNYRIAHELLILGVPLIPRFITEMAHSETGIDIHPGAQIGHHFTIDHGTGVVIGATSIIGNNVKLYQGVTLGAKSFPLDNNGNPIKGIPRHPILEDDVIVYSNATILGRVTIGKGATVGGNIWVTENVPAGSRIVQRKNKDELEHHHHHH”, the “soluble on expression in E. coli” value is given as “soluble”.
Turning to “MTTHLPSTSQNGEEISAEQFNRIFHERNVIVLDCRSNGDSVKRANRFFCSLRLPALLQRRLMGGSMRLSTVPDLKDLNNSPDQCPEVLLIPGDSEQDEQLSAALARNLKSNHYRHFVLGEPVKTLLSQFPTLRDAADENWNTTFQMNSMPGQASGQQASSGPLLNLNQLRLEGEDQGGKQRAEFPVKLTNFLYLGNAETAKNRDVLKKYSISHVINVTSNLPNTFEEDPNMRYLRISADDNASHNLTKFFPEAISFIDDARRNDSACLVHCLAGISRSVTICLAYLMKTEMCTLDSAYEWVQKRNASIAPNFHFMGQLTDYEKMLGLNSNRVGVSRQAVNFDVHFFCIFKLKKKEENSPESRILAETAV”, the “soluble on expression in E. coli” value is on record as “not soluble”.
As for “MTTPLAQRIKSLIRLNGPLSVTDFFSLCLADPEHGYYKSREPFGRSGDFITAPEVSQLFGEMLGVFVVHAWQRHGAPAQTQLVEIGPGRGTMMSDMLRVIRRIAPPLYETMRVHLVETSPRLSAIQKETLTAHADRLTWHDSFDDVPEGFLLLVANELFDAIPIRQFVRTPQGFRERVVSLDANGELVFSTGLAGIDPTLLPPQPERQQLGTVFEVSPAREAVMTAICQRLSVHGGTALAIDYGHLVAGYGDTLQAMRNHAFDPPLAHPGEADLTSHVDFESLVKTAQATGVHVNGALRQGDFLHGLGLKERASALAAKATPDQTLEIAEAVNRLAGEGAGKMGELFKVIAVSSPALHLLPFRAVDLEHHHHHH”, the entry is “soluble”; as for “MTTQTTPAHIAMFSIAAHGHVNPSLEVIRELVARGHRVTYAIPPVFADKVAATGPRPVLYHSTLPGPDADPEAWGSTLLDNVEPFLNDAIQALPQLADAYADDIPDLVLHDITSYPARVLARRWGVPAVSLSPNLVAWKGYEEEVAEPMWREPRQTERGRAYYARFEAWLKENGITEHPDTFASHPPRSLVLIPKALQPHADRVDEDVYTFVGACQGDRAEEGGWQRPAGAEKVVLVSLGSAFTKQPAFYRECVRAFGNLPGWHLVLQIGRKVTPAELGELPDNVEVHDWVPQLAILRQADLFVTHAGAGGSQEGLATATPMIAVPQAVDQFGNADMLQGLGVARKLATEEATADLLRETALALVDDPEVARRLRRIQAEMAQEGGTRRAADLIEAELPARHERQEPVGDRPNVGDRPAGVRSDRQRSAL”, “soluble”; as for “MTVEQNEFLSSVQLQILAEQAIKQYPNEYQGSVKLLCQSENATFLVTTAQAKYALRIHRPNYHHLQDIESELAWLDALNQSGIEVPLAIADQDGQRVITLKLAEGISRYAVLFNWVNGSMPTTDVDPTAFQQLGQITAALHQHSKSWKRPEQFNRIVWNHDTMVGAQGHWGNWKHAPHLDQADHAVVEEAIARISTELCQYGAGEDRYGLIHADLRLTNLLLQDQQIGVIDFDDCGMSWFMHDLAAAISFNEHLDAAPQWVEHWLTGYEKTGHVQNHDYVMIPTFIMQRRIQMMAWNGSHAHTEMALSLGDQWSNETVRLCKKYLNGEMPVGRSNA”, “not soluble”.
